Reference: IntAct's records for PubMed 34591612

Target: brca1_human BRCA1 (UniProt P38398)
Sequence (P38398 whole entry, looked up): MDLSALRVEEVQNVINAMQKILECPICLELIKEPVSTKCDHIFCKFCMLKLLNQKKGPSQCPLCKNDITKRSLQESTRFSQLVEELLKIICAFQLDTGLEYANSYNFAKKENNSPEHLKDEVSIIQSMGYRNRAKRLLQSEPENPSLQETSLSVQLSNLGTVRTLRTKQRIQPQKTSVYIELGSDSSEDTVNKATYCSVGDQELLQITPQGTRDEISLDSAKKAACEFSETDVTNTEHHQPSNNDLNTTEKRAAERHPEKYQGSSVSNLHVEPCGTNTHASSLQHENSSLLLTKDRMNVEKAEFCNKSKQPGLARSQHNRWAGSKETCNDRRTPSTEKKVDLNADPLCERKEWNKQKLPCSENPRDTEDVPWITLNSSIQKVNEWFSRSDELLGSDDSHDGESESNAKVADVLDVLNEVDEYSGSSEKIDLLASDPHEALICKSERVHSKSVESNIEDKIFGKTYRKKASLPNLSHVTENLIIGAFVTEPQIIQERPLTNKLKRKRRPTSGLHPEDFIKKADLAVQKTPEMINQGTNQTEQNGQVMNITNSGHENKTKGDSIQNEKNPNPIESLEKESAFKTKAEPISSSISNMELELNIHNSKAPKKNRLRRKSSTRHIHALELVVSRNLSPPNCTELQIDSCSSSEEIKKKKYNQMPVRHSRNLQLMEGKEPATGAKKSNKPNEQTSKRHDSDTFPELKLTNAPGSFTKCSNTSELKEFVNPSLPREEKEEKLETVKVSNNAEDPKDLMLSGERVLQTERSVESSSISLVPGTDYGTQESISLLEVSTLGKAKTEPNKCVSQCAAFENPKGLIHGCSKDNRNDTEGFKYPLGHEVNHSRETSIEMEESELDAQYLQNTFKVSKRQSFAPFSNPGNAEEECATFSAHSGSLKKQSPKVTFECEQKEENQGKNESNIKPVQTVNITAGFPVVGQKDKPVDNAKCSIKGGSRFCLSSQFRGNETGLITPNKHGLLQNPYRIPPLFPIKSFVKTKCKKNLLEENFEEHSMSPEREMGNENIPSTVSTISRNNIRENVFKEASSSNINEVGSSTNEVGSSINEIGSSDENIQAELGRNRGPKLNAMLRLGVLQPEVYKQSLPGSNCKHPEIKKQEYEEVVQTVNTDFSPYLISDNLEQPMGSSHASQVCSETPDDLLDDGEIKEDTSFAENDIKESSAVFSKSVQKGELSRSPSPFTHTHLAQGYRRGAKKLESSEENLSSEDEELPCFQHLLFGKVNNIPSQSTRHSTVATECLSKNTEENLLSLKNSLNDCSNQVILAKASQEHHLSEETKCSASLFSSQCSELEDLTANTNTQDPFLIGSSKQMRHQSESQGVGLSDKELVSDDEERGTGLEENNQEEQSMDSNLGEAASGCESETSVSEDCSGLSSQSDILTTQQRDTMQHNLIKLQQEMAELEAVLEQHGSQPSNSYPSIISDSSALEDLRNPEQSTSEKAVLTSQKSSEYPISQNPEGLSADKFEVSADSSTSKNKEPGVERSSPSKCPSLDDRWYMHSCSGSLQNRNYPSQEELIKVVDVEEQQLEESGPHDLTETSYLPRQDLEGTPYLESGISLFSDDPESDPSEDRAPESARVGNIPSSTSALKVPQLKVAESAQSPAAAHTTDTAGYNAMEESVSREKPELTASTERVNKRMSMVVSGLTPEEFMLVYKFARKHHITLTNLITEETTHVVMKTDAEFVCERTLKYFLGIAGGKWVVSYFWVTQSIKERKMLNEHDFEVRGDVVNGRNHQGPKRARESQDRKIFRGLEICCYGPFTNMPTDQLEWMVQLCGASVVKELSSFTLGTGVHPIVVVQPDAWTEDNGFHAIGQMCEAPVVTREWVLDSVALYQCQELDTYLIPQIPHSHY

Sequence of Neurabin-2 (Homo sapiens), Q96SB3 F451A (Q96SB3 whole entry F451A): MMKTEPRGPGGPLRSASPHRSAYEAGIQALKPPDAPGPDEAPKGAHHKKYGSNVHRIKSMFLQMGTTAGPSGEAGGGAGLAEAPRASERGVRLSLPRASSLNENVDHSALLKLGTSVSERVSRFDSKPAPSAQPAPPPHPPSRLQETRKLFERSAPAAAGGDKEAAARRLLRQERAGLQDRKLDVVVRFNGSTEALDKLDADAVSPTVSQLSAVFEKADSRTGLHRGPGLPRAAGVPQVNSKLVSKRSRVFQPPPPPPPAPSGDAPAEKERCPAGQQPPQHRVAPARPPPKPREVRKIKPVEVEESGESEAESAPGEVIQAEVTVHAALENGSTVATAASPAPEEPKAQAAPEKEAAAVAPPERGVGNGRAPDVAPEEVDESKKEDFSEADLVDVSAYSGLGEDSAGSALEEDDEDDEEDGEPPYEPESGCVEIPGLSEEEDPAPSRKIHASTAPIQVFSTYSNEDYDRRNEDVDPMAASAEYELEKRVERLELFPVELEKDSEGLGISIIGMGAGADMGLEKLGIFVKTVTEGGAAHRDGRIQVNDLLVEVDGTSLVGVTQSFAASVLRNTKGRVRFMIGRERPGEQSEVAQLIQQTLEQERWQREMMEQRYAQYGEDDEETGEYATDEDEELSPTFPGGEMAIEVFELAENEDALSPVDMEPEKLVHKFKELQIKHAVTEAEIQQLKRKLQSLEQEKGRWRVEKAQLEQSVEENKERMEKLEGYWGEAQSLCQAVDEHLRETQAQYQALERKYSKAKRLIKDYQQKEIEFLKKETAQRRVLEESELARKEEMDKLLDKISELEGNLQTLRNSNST

Row | effect of a mutation on the interaction | Substance
1 | increasing interaction | Neurabin-2 (Homo sapiens), Q96SB3 F451A
2 | disrupting interaction | Neurabin-2 (Homo sapiens), Q96SB3 S635A
3 | increasing interaction | Neurabin-2 (Homo sapiens), Q96SB3 S248A
4 | decreasing interaction | Neurabin-2 (Homo sapiens), Q96SB3 S212A
